B1: LexA-CD2 tail truncation construct N (other, UniProt P0A7C2 1-202, looked up)
chain: MKALTARQQEVFDLIRDHISQTGMPPTRAEIAQRLGFRSPNAAEEHLKALARKGVIEIVSGASRGIRLLQEEEEGLPLVGRVAAGEPLLAQQHIEGHYQVDPSLFKPNADFLLRVSGMSMKDIGIMDGDLLAVHKTQDVRNGQVVVARIDDEVTVKRLKKQGNKVELLPENSEFKPIVVDLRQQSFTIEGLAVGVIRNGDWLNDEELETRAHRVATEERGRKPHQIPASTPQNPATSQHPPPPPGHRSQAPS
B2: LexA-CD2 tail truncation construct M (other, UniProt P0A7C2 1-202, looked up)
chain: MKALTARQQEVFDLIRDHISQTGMPPTRAEIAQRLGFRSPNAAEEHLKALARKGVIEIVSGASRGIRLLQEEEEGLPLVGRVAAGEPLLAQQHIEGHYQVDPSLFKPNADFLLRVSGMSMKDIGIMDGDLLAVHKTQDVRNGQVVVARIDDEVTVKRLKKQGNKVELLPENSEFKPIVVDLRQQSFTIEGLAVGVIRNGDWLNDEELETRAHRVATEERGRKPHQIPASTPQNPATSQHPPPPPGHRSQAPSHRPPPPGHRVQHQPQKR

What was measured:
[1] = target: T1, B42-CD2BP1S/ΔSH3 (CD2BP1S truncation construct lacking the terminal SH3 domain) (human, UniProt O43586 1-359); experiment: yeast two-hybrid, lacZ induction
T1 sequence: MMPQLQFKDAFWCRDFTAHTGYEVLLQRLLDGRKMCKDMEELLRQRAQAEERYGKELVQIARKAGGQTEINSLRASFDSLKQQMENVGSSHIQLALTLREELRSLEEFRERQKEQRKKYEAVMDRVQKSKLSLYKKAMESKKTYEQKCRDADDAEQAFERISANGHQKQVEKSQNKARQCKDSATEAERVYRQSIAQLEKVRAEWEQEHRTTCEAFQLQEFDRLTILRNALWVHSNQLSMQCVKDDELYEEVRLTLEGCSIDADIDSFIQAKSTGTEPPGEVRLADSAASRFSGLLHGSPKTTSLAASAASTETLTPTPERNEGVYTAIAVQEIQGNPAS
Protocol: (§1) These tail variants were tested in the yeast two-hybrid system for their interaction with CD2BP1L or CD2BP1S as well as CD2BP1 truncations. In FIG. 7, open bars represent the region of CD2BP1 sequence with homology to yeast cdc15 protein aa 116–277; solid bars represent PEST rich regions in the CD2BP1 sequences; and hatched bars represent the SH3 domain in the CD2BP1 sequences. CD2BP1S/ΔSH3 represents CD2BP1 lacking the SH3 domain. $SH334$ includes the entire SH3 domain of CD2BP1 and 34 N-terminal amino acids. $SH366$ includes the SH3 domain of CD2BP1S and 66 N-terminal amino acids. $SH383$ includes the SH3 domain of CD2BP1L and 83 N-terminal amino acids of CD2BP1L. SH^3GGGGS includes the entire SH3 domain of CD2BP1 and an artificial N-terminal linker consisting of the residues shown.
(§2) The strength of the interaction between the CD2 variants and the CD2BP1 constructs was determined by lacZ induction.

[2] = target: T2, B42-CD2BP1L fusion (CD2BP1L in pJG4-5) (human, UniProt O43586 1-416); experiment: yeast two-hybrid, lacZ induction
T2 sequence: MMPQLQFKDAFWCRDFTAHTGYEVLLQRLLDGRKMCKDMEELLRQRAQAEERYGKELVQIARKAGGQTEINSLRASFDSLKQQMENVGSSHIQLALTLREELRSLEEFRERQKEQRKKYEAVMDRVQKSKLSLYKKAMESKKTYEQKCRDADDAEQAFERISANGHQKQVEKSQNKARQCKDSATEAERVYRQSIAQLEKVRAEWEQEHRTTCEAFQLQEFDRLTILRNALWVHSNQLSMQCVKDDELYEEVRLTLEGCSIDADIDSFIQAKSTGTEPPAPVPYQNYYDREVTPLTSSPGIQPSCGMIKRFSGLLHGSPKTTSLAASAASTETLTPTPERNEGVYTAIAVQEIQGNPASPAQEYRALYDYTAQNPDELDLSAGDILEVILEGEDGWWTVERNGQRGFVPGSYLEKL
Protocol: as §1, §2

[3] = target: T3, B42-CD2BP1S fusion (CD2BP1S in pJG4-5) (human, UniProt O43586 1-416); experiment: yeast two-hybrid, lacZ induction
T3 construct: also called clone #48; CD2BP1S/pJG4-5
T3 sequence: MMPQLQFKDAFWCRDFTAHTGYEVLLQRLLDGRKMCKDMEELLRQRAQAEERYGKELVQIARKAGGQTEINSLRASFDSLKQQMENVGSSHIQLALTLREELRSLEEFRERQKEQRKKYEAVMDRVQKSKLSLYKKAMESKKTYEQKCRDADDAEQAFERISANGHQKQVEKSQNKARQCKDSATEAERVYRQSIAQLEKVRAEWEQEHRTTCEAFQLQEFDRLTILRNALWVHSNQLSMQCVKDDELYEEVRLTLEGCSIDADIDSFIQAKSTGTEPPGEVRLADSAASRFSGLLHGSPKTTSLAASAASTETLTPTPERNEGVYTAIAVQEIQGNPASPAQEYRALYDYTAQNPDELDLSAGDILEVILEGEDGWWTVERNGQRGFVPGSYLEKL
Protocol: as §1, §2

[4] = target: B2; experiment: yeast two-hybrid, lacZ induction
Protocol: as §1, §2

[5] = target: B1; experiment: yeast two-hybrid, lacZ induction
Protocol: as §1, §2

[6] = target: T4, human CD2 (wild-type, full length) (human, UniProt P06729 25-351); experiment: cell-cell conjugates of activated human T cells with CD58-transfected CHO cells, immunofluorescence
T4 construct: whole, on cells; In pull-downs and immunoprecipitations it stood in Triton X-100 cell lysates; in staining and rosetting on the cell surface; also called wtCD2; hCD2wt (W33)
T4 sequence (looked up): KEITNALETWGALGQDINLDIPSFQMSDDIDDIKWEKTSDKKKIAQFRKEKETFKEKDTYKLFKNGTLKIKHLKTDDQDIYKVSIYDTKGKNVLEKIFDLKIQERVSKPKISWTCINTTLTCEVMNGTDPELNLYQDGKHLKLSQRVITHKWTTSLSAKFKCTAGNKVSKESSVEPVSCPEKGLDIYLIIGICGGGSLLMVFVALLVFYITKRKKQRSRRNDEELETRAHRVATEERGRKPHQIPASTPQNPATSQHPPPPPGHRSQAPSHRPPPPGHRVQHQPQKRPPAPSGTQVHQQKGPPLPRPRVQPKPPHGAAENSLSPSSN
Protocol: For image analysis of the CD2BP1 association with CD2, CD2 molecules on the activated T cell surface were induced to cluster by either a pair of anti-CD2 antibodies (anti-T11_2 plus anti-T11_3) or by CD58 ligand directed CD2 relocalization. For antibody crosslinking, activated T cells were incubated with anti-T11_2 mAb (5 μg/ml) and direct Texas red labeled anti-T11_3 mAb (1:50) in FACS buffer at 4° C. for 30 min, followed by two washes with FACS buffer and fixation by incubation in 2% paraformaldehyde/PBS. The cells were then permeabilized and stained with directly FITC-labeled anti-CD2BP1 mAb, followed by fluoroimaging analysis as described above. For ligand induced surface CD2 relocalization, activated T cells were incubated with CD58 transfected CHO cells prebound to coverslips to induce cellular conjugate formation as described previously (Li et al., 1996). After washing off the non-conjugated T cells and fixation in 1% parafornaldehyde, the conjugates were stained with anti-T11_3 antibody (1:50) at 4° C. for 30 min, followed by washing, permeabilization and staining with anti-CD2BP1 antibody as described above. The stained conjugates on the coverslips were then subject to fluoroimaging analysis. […]

[7] = target: T3, B42-CD2BP1S fusion (CD2BP1S in pJG4-5); experiment: yeast two-hybrid (LexA-CD2 tail variant / B42-CD2BP1 construct), lacZ induction
Protocol: as §1, §2

Binder | binding result [1] | binding result [2] | binding result [3] | further results
B1 | no binding | no binding | no binding | 
B42-SH334 (SH3 domain of CD2BP1 plus 34 N-terminal amino acids) (other, not shown: large carriers) ASAASTETLTPTPERNEGVYTAIAVQEIQGNPASPAQEYRALYDYTAQNPDELDLSAGDILEVILEGEDGWWTVERNGQRGFVPGSYLEKL |  |  |  | binding result [4]: no binding; binding result [5]: no binding
human CD58 (on transfected CHO cells) (ligand, UniProt P19256 29-250, looked up, whole, on cells; also called CD58 ligand; human CD58-transfected CHO cells) FSQQIYGVVYGNVTFHVPSNVPLKEVLWKKQKDKVAELENSEFRAFSSFKNRVYLDTVSGSLTIYNLTSSDEDEYEMESPNITDTMKFFLYVLESLPSPTLTCALTNGSIEVQCMIPEHYNSHRGLIMYSWDCPMEQCKRNSTSIYFKMENDLPQKIQCTLSNPLFNTTSSIILTTCIPSSGHSRHRYALIPIPLAVITTCIVLYMNGILKCDRKPDRTNSN |  |  |  | binding result [6]: binds
LexA-CD2 cytoplasmic tail fusion (CD2 bait, aa 221-327) in pEG202 (other, UniProt P0A7C2 1-202, looked up, The CD2 aa numbers (tail ends at 327) appear to count on mature CD2, not on the precursor; also called CD2 tail; pEG202/CD2) MKALTARQQEVFDLIRDHISQTGMPPTRAEIAQRLGFRSPNAAEEHLKALARKGVIEIVSGASRGIRLLQEEEEGLPLVGRVAAGEPLLAQQHIEGHYQVDPSLFKPNADFLLRVSGMSMKDIGIMDGDLLAVHKTQDVRNGQVVVARIDDEVTVKRLKKQGNKVELLPENSEFKPIVVDLRQQSFTIEGLAVGVIRNGDWLNDEELETRAHRVATEERGRKPHQIPASTPQNPATSQHPPPPPGHRSQAPSHRPPPPGHRVQHQPQKRPPAPSGTQVHQQKGPPLPRPRVQPKPPHGAAENSLSPSSN | no binding | binds |  | binding result [7]: binds
B2 | no binding | no binding | no binding | 
